T1: L59R mutant lamin 1 to 300 fragment (human, UniProt P02545 1-300, L59R)
T1 construct: lamin A/C, residues 1-300, with the genetic (laminopathy) mutation L59R; also called L59R-harboring lamin 1 to 300; L59R lamin 1 to 300
T1 sequence (looked up): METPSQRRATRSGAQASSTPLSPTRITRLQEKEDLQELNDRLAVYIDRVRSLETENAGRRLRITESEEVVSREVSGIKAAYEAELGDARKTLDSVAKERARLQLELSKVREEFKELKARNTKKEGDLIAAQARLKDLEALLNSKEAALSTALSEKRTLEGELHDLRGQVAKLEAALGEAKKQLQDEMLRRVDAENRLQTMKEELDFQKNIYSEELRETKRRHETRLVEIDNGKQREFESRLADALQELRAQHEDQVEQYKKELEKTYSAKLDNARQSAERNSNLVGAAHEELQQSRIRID

T2: WT lamin 1 to 300 fragment (lamin A/C residues 1-300) (human, UniProt P02545 1-300)
T2 construct: lamin A/C, residues 1-300 (head region 1-27 and part of the central rod domain); The abstract says purified proteins were used; also called lamin 1-300; lamin N-terminal 1 to 300 fragment
T2 sequence (looked up): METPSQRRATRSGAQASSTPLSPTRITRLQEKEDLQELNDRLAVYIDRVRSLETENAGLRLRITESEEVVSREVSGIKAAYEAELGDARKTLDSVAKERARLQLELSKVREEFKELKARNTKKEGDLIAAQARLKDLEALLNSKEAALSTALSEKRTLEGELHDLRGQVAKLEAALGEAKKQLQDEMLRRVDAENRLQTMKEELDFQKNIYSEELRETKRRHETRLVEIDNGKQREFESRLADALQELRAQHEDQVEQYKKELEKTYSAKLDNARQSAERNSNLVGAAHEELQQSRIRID

B1: GST-fused lamin 250 to 400 fragment (human lamin A/C residues 250-400) (domain or fragment, UniProt P02545 250-400, looked up)
chain: AQHEDQVEQYKKELEKTYSAKLDNARQSAERNSNLVGAAHEELQQSRIRIDSLSAQLSQLQKQLAAKEAKLRDLEDSLARERDTSRRLLAEKEREMAEMRARMQQQLDEYQELLDIKLALDMEIHAYRKLLEGEEERLRLSPSPTSQRSRG
notes: human lamin A/C, residues 250-400: most of coil 2 (242-385) and a C-terminal flanking region (386-400); also called GST-lamin coil 250-400; lamin C-terminal 250 to 400 fragment; source: E. coli, purified (glutathione-agarose, HiTrap Q, desalting); not shown: GST, N-terminal, kept

Experiments:
[1] = target: lamin A/C 250-400 (UniProt P02545); experiment: GST pull-down, SDS-PAGE; conditions: reference: wild type, CDK1 treated
[2] = target: B1; experiment: pull-down; GST-fused coil 2C fragment (5 μM) on GSH-agarose resin with lamin N-terminal fragments (20 μM); 20 mM Tris-HCl pH 7.5, 50 mM NaCl, 1 h at room temperature; eluted with 20 mM GSH; SDS-PAGE or Phos-tag SDS-PAGE; conditions: both partners purified
[3] = target: the molecule itself; experiment: cross-linking; disulfide bond between Cys146 of two coiled-coil dimers as read-out of the A11 tetramer; Phos-tag SDS-PAGE with nonreducing loading dye
[4] = target: T1, L59R mutant lamin 1 to 300 fragment; experiment: pull-down; GST-fused coil 2C fragment (5 μM) on GSH-agarose resin with lamin N-terminal fragments (20 μM); 20 mM Tris-HCl pH 7.5, 50 mM NaCl, 1 h at room temperature; eluted with 20 mM GSH; SDS-PAGE or Phos-tag SDS-PAGE; conditions: both partners purified
[5] = target: T2, WT lamin 1 to 300 fragment (lamin A/C …); experiment: as above; conditions: both partners purified

| binding result [2] | Molecule | also measured |
| --- | --- | --- |
| – | lamin A/C 1-125 (from UniProt P02545) S22A, CDK1 treated | binding against the reference ([1]; sites S22): stronger |
| – | lamin A/C 1-125 (from UniProt P02545) T19A, CDK1 treated | binding against the reference ([1]; sites T19): stronger |
| binds | WT lamin 1 to 125 fragment (human lamin A/C, residues 1-125) (domain or fragment, UniProt P02545 1-125, looked up) METPSQRRATRSGAQASSTPLSPTRITRLQEKEDLQELNDRLAVYIDRVRSLETENAGLRLRITESEEVVSREVSGIKAAYEAELGDARKTLDSVAKERARLQLELSKVREEFKELKARNTKKEG | – |
| binds | lamin 1 to 125 fragment T19D/S22D (domain or fragment, human, UniProt P02545 1-125, looked up, also called phosphorylation-mimicking dual mutant) METPSQRRATRSGAQASSDPLDPTRITRLQEKEDLQELNDRLAVYIDRVRSLETENAGLRLRITESEEVVSREVSGIKAAYEAELGDARKTLDSVAKERARLQLELSKVREEFKELKARNTKKEG | – |
| binds | lamin 1 to 125 fragment T19A (domain or fragment, human, UniProt P02545 1-125, looked up) METPSQRRATRSGAQASSAPLSPTRITRLQEKEDLQELNDRLAVYIDRVRSLETENAGLRLRITESEEVVSREVSGIKAAYEAELGDARKTLDSVAKERARLQLELSKVREEFKELKARNTKKEG | – |
| binds | lamin 1 to 125 fragment T19A/S22A (domain or fragment, human, UniProt P02545 1-125, looked up, also called double mutant) METPSQRRATRSGAQASSAPLAPTRITRLQEKEDLQELNDRLAVYIDRVRSLETENAGLRLRITESEEVVSREVSGIKAAYEAELGDARKTLDSVAKERARLQLELSKVREEFKELKARNTKKEG | – |
| binds | lamin 1 to 125 fragment S22A (domain or fragment, human, UniProt P02545 1-125, looked up) METPSQRRATRSGAQASSTPLAPTRITRLQEKEDLQELNDRLAVYIDRVRSLETENAGLRLRITESEEVVSREVSGIKAAYEAELGDARKTLDSVAKERARLQLELSKVREEFKELKARNTKKEG | – |
| – | A146C mutant lamin 1 to 300 fragment (domain or fragment, human, UniProt P02545 1-300, looked up, lamin A/C, residues 1-300; Cys146 forms a disulfide between two coiled-coil dimers within the A11 tetramer; also called lamin 1 to 300 (A146C)) METPSQRRATRSGAQASSTPLSPTRITRLQEKEDLQELNDRLAVYIDRVRSLETENAGLRLRITESEEVVSREVSGIKAAYEAELGDARKTLDSVAKERARLQLELSKVREEFKELKARNTKKEGDLIAAQARLKDLEALLNSKECALSTALSEKRTLEGELHDLRGQVAKLEAALGEAKKQLQDEMLRRVDAENRLQTMKEELDFQKNIYSEELRETKRRHETRLVEIDNGKQREFESRLADALQELRAQHEDQVEQYKKELEKTYSAKLDNARQSAERNSNLVGAAHEELQQSRIRID | binding result [3]: binds |
| – | B1 | binding result [4]: binds; binding result [5]: binds |
